We go through 36 molecules from patent US9296810 (Novartis, dated 2016).

One test addresses T1, hen egg white lysozyme (hen, UniProt P00698 19-147, biotinylated (HEL-b); sites not stated).
T1 construct: also called lyzozyme; HEL-b (biotinylated)
Description: yeast display selection.

Test [1] concerns the target Human Serum Albumin (HSA) (human, UniProt P02768 25-609). Description: yeast display selection.

T1 sequence (P00698 19-147 limits assumed): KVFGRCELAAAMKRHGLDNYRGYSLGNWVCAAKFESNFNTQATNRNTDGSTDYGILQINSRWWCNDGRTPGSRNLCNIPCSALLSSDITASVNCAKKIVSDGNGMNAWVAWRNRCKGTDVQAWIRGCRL
Human Serum Albumin (HSA), sequence (P02768 25-609 limits assumed): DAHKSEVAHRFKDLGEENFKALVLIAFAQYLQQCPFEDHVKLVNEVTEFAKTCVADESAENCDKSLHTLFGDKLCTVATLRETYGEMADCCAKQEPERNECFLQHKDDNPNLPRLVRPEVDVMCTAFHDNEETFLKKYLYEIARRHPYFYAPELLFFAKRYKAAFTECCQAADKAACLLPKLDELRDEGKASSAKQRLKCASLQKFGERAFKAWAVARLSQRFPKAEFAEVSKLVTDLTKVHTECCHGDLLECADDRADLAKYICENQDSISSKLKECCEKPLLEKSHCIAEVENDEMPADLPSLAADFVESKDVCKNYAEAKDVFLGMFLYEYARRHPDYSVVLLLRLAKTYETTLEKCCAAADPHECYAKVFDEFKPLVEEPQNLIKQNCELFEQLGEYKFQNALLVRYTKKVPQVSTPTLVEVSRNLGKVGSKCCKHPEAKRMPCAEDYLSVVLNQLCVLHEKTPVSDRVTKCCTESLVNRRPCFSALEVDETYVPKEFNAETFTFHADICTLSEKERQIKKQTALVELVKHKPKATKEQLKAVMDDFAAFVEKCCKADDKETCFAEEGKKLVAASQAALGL

B1: SEQ ID NO 66 (designed binder)
chain: VSDVPRDLEVVAATPTSLLISWDAPAVTVRYYRITYGEYYRSYYQEFTVPGSKSTATISSYEPPVDYTITVYAVTGRGESPASSKPISINYRRYL
Take B1: in the test with hen egg white lysozyme, the binding result was “binds”.

B2: SEQ ID NO 77 (designed binder)
chain: VSDVPRDLEVVAATPTSLLISWDAPAVTVRYYRITYGEYRRRARQEFTVPGSKSTATISEHEPLVDYTITVYAVTGRGESPASSKPISINYYSYY
For the molecule B2, the binding result with hen egg white lysozyme was “binds”.

B3: SEQ ID NO 80 (designed binder)
chain: VSDVPRDLEVVAATPTSLLISWDAPAVTVRYYRITYGESRRSYPQEFTVPGSKSTATISSSHRSVDYTITVYAVTGRGESPASSKPISINYRSYL
As to B3, in the test with hen egg white lysozyme, the binding result was “binds”.

B4: SEQ ID NO 61 (designed binder)
chain: VSDVPRDLEVVAATPTSLLISWDAPAVTVRYYRITYGEPRSEEGEQEFTVPGSKSTATISRRYSLVDYTITVYAVTGRGESPASSKPISINYYSSR
Regarding B4, the binding result in the test with hen egg white lysozyme is “binds”.

B5: SEQ ID NO 81 (designed binder)
chain: VSDVPRDLEVVAATPTSLLISWDAPAVTVRYYRITYGESHHYGPQEFTVPGSKSTATISLLGAHVDYTITVYAVTGRGESPASSKPISINYHGLY
With B5, the binding result with hen egg white lysozyme is “binds”.

B6: SEQ ID NO 71 (designed binder)
chain: VSDVPRDLEVVAATPTSLLISWDAPAVTVRYYRITYGERGSGLGYQEFTVPGSKSTATISSRAYRVDYTITVYAVTGRGESPASSKPISINYALYE
With B6, the binding result in the test with hen egg white lysozyme is recorded as “binds”.

B7: SEQ ID NO 56 (designed binder)
chain: VSDVPRDLEVVAATPTSLLISWDAPAVTVRYYRITYGEYLYHHGQEFTVPGSKSTATISYRSAPVDYTITVYAVTGRGESPASSKPISINYRHER
Consider B7, for which the binding result in the test with hen egg white lysozyme was “binds”.

B8: SEQ ID NO 65 (designed binder)
chain: VSDVPRDLEVVAATPTSLLISWDAPAVTVRYYRITYGERLREGGSQEFTVPGSKSTATISRAGERVDYTITVYAVTGRGESPASSKPISINYAQYP
Regarding B8, the binding result in the test with hen egg white lysozyme was “binds”.

B9: SEQ ID NO 50 (designed binder)
chain: VSDVPRDLEVVAATPTSLLISWDAPAVTVRYYRITYGESLYYHQEFTVPGSKSTATISASYYAVDYTITVYAVTGRGESPASSKPISINYSYHL
With B9, the binding result in the test with hen egg white lysozyme is listed as “binds”.

B10: SEQ ID NO 78 (designed binder)
chain: VSDVPRDLEVVAATPTSLLISWDAPAVTVRYYRITYGEQRARSRQEFTVPGSKSTATISEQRRRVDYTITVYAVTGRGESPASSKPISINYRALL
In the case of B10, the binding result with hen egg white lysozyme is on record as “binds”.

B11: SEQ ID NO 75 (designed binder)
chain: VSDVPRDLEVVAATPTSLLISWDAPAVTVRYYRITYGEYGGSQAQEFTVPGSKSTATISREYGSVDYTITVYAVTGRGESPASSKPISINYALGE
On to B11, for which the binding result with hen egg white lysozyme is given as “binds”.

B12: SEQ ID NO 84 (designed binder)
chain: VSDVPRDLEVVAATPTSLLISWDAPAVTVRYYRITYGEAGYSGGQEFTVPGSKSTATISERAEYVDYTITVYAVTGRGESPASSKPISINYERRY
B12: the binding result in the test with hen egg white lysozyme was “binds”.

B13: SEQ ID NO 85 (designed binder)
chain: VSDVPRDLEVVAATPTSLLISWDAPAVTVRYYRITYGELSRSGSQEFTVPGSKSTATISGSYGYVDYTITVYAVTGRGESPASSKPISINYEQSY
B13: the binding result with hen egg white lysozyme is “binds”.

B14: SEQ ID NO 64 (designed binder)
chain: VSDVPRDLEVVAATPTSLLISWDAPAVTVRYYRITYGERRSHRERQEFTVPGSKSTATISRRRRRVDYTITVYAVTGRGESPASSKPISINYSRRR
Take B14: in the test with hen egg white lysozyme, the binding result is “binds”.

B15: SEQ ID NO 55 (designed binder)
chain: VSDVPRDLEVVAATPTSLLISWDAPAVTVRYYRITYGEGQGAGASQEFTVPGSKSTATISGAEPAVDYTITVYAVTGRGESPASSKPISINYGPRY
For B15, the binding result with hen egg white lysozyme is reported as “binds”.

B16: SEQ ID NO 86 (designed binder)
chain: VSDVPRDLEVVAATPTSLLISWDAPAVTVRYYRITYGELPSQGRQEFTVPGSKSTATISYRRELVDYTITVYAVTGRGESPASSKPISINYGSSY
On to B16, for which, in the test with hen egg white lysozyme, the binding result is “binds”.

B17: SEQ ID NO 57 (designed binder)
chain: VSDVPRDLEVVAATPTSLLISWDAPAVTVRYYRITYGEGSLLYHSQEFTVPGSKSTATISYGPASVDYTITVYAVTGRGESPASSKPISINYRRRY
As to B17, the binding result with hen egg white lysozyme was “binds”.

B18: SEQ ID NO 79 (designed binder)
chain: VSDVPRDLEVVAATPTSLLISWDAPAVTVRYYRITYGERRRRYGQEFTVPGSKSTATISSRSRGVDYTITVYAVTGRGESPASSKPISINYLYPY
As for B18, in the test with hen egg white lysozyme, the binding result was “binds”.

B19: SEQ ID NO 58 (designed binder)
chain: VSDVPRDLEVVAATPTSLLISWDAPAVTVRYYRITYGESSHGRSQEFTVPGSKSTATISSSSSRVDYTITVYAVTGRGESPASSKPISINYGYRG
In the case of B19, the binding result with hen egg white lysozyme is recorded as “binds”.

B20: SEQ ID NO 59 (designed binder)
chain: VSDVPRDLEVVAATPTSLLISWDAPAVTVRYYRITYGEYGYSRSQEFTVPGSKSTATISYSSPRVDYTITVYAVTGRGESPASSKPISINYGSRY
For the molecule B20, the binding result with hen egg white lysozyme was “binds”.

B21: SEQ ID NO 74 (designed binder)
chain: VSDVPRDLEVVAATPTSLLISWDAPAVTVRYYRITYGEYEPYGSQYQEFTVPGSKSTATISERQHAVDYTITVYAVTGRGESPASSKPISINYRRYE
Consider B21, for which, in the test with hen egg white lysozyme, the binding result is recorded as “binds”.

B22: SEQ ID NO 70 (designed binder)
chain: VSDVPRDLEVVAATPTSLLISWDAPAVTVRYYRITYGESHQGLSYQEFTVPGSKSTATISPGSSSVDYTITVYAVTGRGESPASSKPISINYRYYR
For the molecule B22, the binding result with hen egg white lysozyme was “binds”.

B23: SEQ ID NO 62 (designed binder)
chain: VSDVPRDLEVVAATPTSLLISWDAPAVTVRYYRITYGEAASSRLRQEFTVPGSKSTATISSYSGLVDYTITVYAVTGRGESPASSKPISINYYSSY
As to B23, in the test with hen egg white lysozyme, the binding result is recorded as “binds”.

B24: SEQ ID NO 49 (designed binder)
chain: VSDVPRDLEVVAATPTSLLISWDAPAVTVRYYRITYGERGSEAERQEFTVPGSKSTATISQAYYGVDYTITVYAVTGRGESPASSKPISINYSYAS
As to B24, the binding result in the test with hen egg white lysozyme is “binds”.

B25: SEQ ID NO 69 (designed binder)
chain: VSDVPRDLEVVAATPTSLLISWDAPAVTVRYYRITYGEYRSSSYYQEFTVPGSKSTATISYPSERVDYTITVYAVTGRGESPASSKPISINYQSSA
For B25, the binding result in the test with hen egg white lysozyme is “binds”.

B26: SEQ ID NO 67 (designed binder)
chain: VSDVPRDLEVVAATPTSLLISWDAPAVTVRYYRITYGEYYARPEYQEFTVPGSKSTATISYYEPEVDYTITVYAVTGRGESPASSKPISINYRSYP
B26: the binding result with hen egg white lysozyme was “binds”.

B27: SEQ ID NO 73 (designed binder)
chain: VSDVPRDLEVVAATPTSLLISWDAPAVTVRYYRITYGERGYPGQEFTVPGSKSTATISEYSHSVDYTITVYAVTGRGESPASSKPISINYAQYQ
Consider B27, for which the binding result with hen egg white lysozyme is on record as “binds”.

B28: SEQ ID NO 52 (designed binder)
chain: VSDVPRDLEVVAATPTSLLISWDAPAVTVRYYRITYGESSRSPRGQEFTVPGSKSTATISRAEYRVDYTITVYAVTGRGESPASSKPISINYYLRQ
As to B28, the binding result with hen egg white lysozyme is listed as “binds”.

B29: SEQ ID NO 53 (designed binder)
chain: VSDVPRDLEVVAATPTSLLISWDAPAVTVRYYRITYGESSPEYRGQEFTVPGSKSTATISLEEYEVDYTITVYAVTGRGESPTSSKPISINYQYRY
B29: in the test with hen egg white lysozyme, the binding result is given as “binds”.

B30: SEQ ID NO 54 (designed binder)
chain: VSDVPRDLEVVAATPTSLLISWDAPAVTVRYYRITYGESLRSREGQEFTVPGSKSTATISGRQESVDYTITVYAVTGRGESPASSKPISINYGQRY
On to B30, for which the binding result in the test with hen egg white lysozyme is given as “binds”.

B31: SEQ ID NO 60 (designed binder)
chain: VSDVPRDLEVVAATPTSLLISWDAPAVTVRYYRITYGEYRYAYAYGQEFTVPGSKSTATISRSSPRVDYTITVYAVTGRGESPASSKPISINYPRRY
Turning to B31, the binding result with hen egg white lysozyme was “binds”.

B32: SEQ ID NO 83 (designed binder)
chain: VSDVPRDLEVVAATPTSLLISWDAPAVTVRYYRITYGEAHEYYYQEFTVPGSKSTATISRSSSSVDYTITVYAVTGRGESPASSKPISINYYGRY
On to B32, for which the binding result with hen egg white lysozyme is given as “binds”.

B33: SEQ ID NO 63 (designed binder)
chain: VSDVPRDLEVVAATPTSLLISWDAPAVTVRYYRITYGERERQHGYQEFTVPGSKSTATISRYRRRVDYTITVYAVTGRGESPASSKPISINYEPGY
Take B33: the binding result with hen egg white lysozyme was “binds”.

B34: SEQ ID NO 76 (designed binder)
chain: VSDVPRDLEVVAATPTSLLISWDAPAVTVRYYRITYGESSGRYRQEFTVPGSKSTATISRYPHGVDYTITVYAVTGRGESPASSKPISINYAKNV
Turning to B34, in the test with hen egg white lysozyme, the binding result is on record as “binds”.

B35: SEQ ID NO 72 (designed binder)
chain: VSDVPRDLEVVAATPTSLLISWDAPAVTVRYYRITYGERGGYSSQEFTVPGSKSTATISSRYRQVDYTITVYAVTGRGESPASSKPISINYQSYS
On to B35, for which the binding result with hen egg white lysozyme is “binds”.

B36: SEQ ID NO 7 (designed binder)
chain: VSDVPRDLEVVAATPTSLLISWDAPAVTVRYYRITYGKTEGHRHSHEFTVPGSKSTATISGLKHGDDYTITVYAVTGRGDSPASSKPISINYRMEK
In the case of B36, the binding result in test [1] was “binds”.
